From patent US20230110188A1 (ARGENX IIP, published 2023)

T1: Human MuSK (R&D Systems, cat. 10189-MK, histidine tag) (human, UniProt O15146 24-495)
T1 construct: Bought protein; also called human monomeric MuSK-6xhis; not shown: histidine tag (6xhis)
T1 sequence: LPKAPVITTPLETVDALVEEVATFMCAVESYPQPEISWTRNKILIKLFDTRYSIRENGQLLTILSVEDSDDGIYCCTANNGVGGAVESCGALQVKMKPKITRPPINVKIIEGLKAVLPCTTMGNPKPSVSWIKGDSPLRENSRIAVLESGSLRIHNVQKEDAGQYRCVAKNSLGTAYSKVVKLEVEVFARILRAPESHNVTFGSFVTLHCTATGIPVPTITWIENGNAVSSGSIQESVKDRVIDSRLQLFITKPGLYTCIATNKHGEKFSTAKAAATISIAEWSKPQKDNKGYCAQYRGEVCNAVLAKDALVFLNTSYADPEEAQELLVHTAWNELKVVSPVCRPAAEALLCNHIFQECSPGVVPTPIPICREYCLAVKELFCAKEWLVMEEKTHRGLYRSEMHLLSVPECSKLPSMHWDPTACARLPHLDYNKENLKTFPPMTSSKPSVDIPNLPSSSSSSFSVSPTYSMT

T2: human monomeric MuSK FLAG streptavidin (in house produced, batch 27-6-2019) (human, UniProt O15146 24-495)
T2 construct: also called full length MuSK; not shown: FLAG and streptavidin tags
T2 sequence: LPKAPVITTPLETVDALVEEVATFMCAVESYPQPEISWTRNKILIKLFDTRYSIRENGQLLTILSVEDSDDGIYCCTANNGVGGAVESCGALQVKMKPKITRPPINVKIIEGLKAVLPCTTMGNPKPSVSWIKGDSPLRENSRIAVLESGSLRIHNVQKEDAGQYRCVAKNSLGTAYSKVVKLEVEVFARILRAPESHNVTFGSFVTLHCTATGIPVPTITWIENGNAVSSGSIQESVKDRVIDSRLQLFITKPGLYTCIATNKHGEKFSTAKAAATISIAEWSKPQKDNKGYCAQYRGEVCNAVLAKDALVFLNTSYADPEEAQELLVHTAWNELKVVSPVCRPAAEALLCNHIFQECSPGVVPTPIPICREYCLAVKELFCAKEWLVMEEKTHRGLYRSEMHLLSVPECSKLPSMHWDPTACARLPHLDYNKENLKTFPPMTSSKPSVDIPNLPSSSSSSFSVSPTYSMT

T3: hMuSK delta 1-2 (Ig3 Fz) (human, UniProt O15146)
T3 construct: truncated extracellular domain, captured by anti-FLAG
T3 sequence (truncated extracellular domain, looked up): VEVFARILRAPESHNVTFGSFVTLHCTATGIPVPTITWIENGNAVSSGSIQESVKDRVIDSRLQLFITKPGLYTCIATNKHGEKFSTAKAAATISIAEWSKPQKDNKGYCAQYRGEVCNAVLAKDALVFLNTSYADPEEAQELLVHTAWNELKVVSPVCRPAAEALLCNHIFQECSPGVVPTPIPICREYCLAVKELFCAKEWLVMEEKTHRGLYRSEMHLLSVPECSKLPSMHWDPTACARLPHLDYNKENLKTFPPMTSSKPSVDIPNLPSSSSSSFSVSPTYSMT


Assays:
[1] = target: T1, Human MuSK (R&D Systems, cat. 10189-MK, …); assay: SPR (Biacore), antibody captured on anti-hFc chip; 2.5 nM; dissociation pH 7.4
From the text: (§1) In order to study pH dependent binding of our antibodies to MuSK, the Biacore was used with the same setup as described in the paragraph entitled “Binding affinity for mouse, human and rhesus monkey recombinant MuSK in Biacore”. 6. […] For the other antibodies there is no real difference observed between pH 7.4 and 5.5.

[2] = target: T2, human monomeric MuSK FLAG streptavidin …; assay: epitope binning ELISA (coated anti-MuSK Fab, MuSK, IgG, anti-Fc HRP); competitor: 4D3
Procedure: (§2) For epitope binning—An ELISA plate was coated at 1 μg/ml of the anti-MuSK Fabs and incubated overnight at 4° C. Next, the plate was wash with PBS followed by blocking with 1% casein in PBS for one hour. After washing the plate, 1 μg/ml of human monomeric MuSK (in house produced, batch 27-6-2019) was incubated for one hour at RT. The plate was washed and anti-MuSK antibodies at 0.3-10 μg/ml were added to the plate and incubated for one hour at RT. After washing the plate, detection antibody (goat anti-human Fc HRP (Jackson Immunoresearch cat. 109-035-098)) was added at 5000 fold dilution in PBS 0.1% casein. The plate was incubated for one hour at RT and washed with PBS-T. TMB was added and the reaction was stopped by adding H2504. […]
(§3) For the epitope binning ELISA, a plate was coated with anti-MuSK Fab and human monomeric MuSK was added after blocking the plate. Next the different antibodies were added and allowed to bind.

hMuSK delta 1-2 (Ig3 Fz) = target: T3, hMuSK delta 1-2 (Ig3 Fz); assay: ELISA, hMuSK delta 1-2 (Ig3 Fz) captured on anti-FLAG coat, antibody titrated, anti-human Fc HRP detection, OD450
Procedure: For binding to MuSK domains—An ELISA plate was coated with 0.5 μg/ml of anti-FLAG (M2 clone, Sigma Cat. F3165) and incubated overnight at 4° C. Next, the plate was washed with PBS and blocked with 1×PBS 1% casein for two hours at RT. After washing the plate, human monomeric MuSK FLAG streptavidin (batch 27-6-2019) and truncated MuSK variants (batch 3-9-2019) at 1 μg/ml in PBS where incubated for one hour at RT. After washing the plate, antibodies were diluted in blocking buffer and added to the plate. After a one hour incubation at RT, the plate was washed. Next, detecting antibody was added and incubated for one hour at RT (anti-human Fc HRP (1/5000) (clone 5A9, cat. No. Ab7499, ABCAM)) in blocking buffer. Lastly, the plate was washed with PBS and TMB was added and the reaction was stopped with 0.5 M H2SO4. OD 450 nm was determined by the Tecan Sunrise ELISA plate reader.
For the MuSK domain binding ELISA, binding of anti-MuSK antibodies to FLAG captured human monomeric MuSK and truncated variants was tested (FIG. 6). 3D9b, 3F6c, 3D10a, 4D3 and 3B5 bound only to full length MuSK, no binding was observed against the truncated MuSK variants. Therefore, we conclude that our antibodies bind to the Ig1 domain.

[3] = target: T2, human monomeric MuSK FLAG streptavidin …; assay: epitope binning ELISA (coated anti-MuSK Fab, MuSK, IgG, anti-Fc HRP); competitor: 3B5wt
Procedure: as §2, §3

[4] = target: T1, Human MuSK (R&D Systems, cat. 10189-MK, …); assay: SPR (Biacore), antibody captured on anti-hFc chip; 0.625 nM; dissociation pH 5.5
From the text: as §1

[5] = target: T1, Human MuSK (R&D Systems, cat. 10189-MK, …); assay: SPR (Biacore), pH 5.5 (summary table, repeats the average of Table 17)
From the text: as §1

Binder | koff [1] [s⁻¹] | OD 450 nm [2] [OD] | binding result (hMuSK delta 1-2 (Ig3 Fz)) | OD 450 nm [3] [OD] | koff [4] [s⁻¹] | koff [5] [s⁻¹]
3D10a (antibody, human IgG1, kappa, L234A L235A, V domains shown) VH: EVQLVESGGGLVKPGGSLRLSCAASGFTFSASTMAWVRQAPGKGLEWVSSVSGDSHHIYYADSLKGRFTISRDNAKNSLYLQMNSLRAEDTAVYYCARERLLRLGVGFDSWGQGTLVTVSS VL: DIQMTQSPSSLSASVGDRVTITCRASQRISGFVNWYQQKPGKAPKLLIYAASTLQSGVPSRFSGSGSGTDFTLTISSLQPEDFATYYCQQSYSPLYTFGQGTKLEIKR | 0.00018 | 0.062 | no binding (tested: log(conc) 4.2 (about 16000 ng/ml)) | 2.12 | 0.00012 | 9e-05
3F6c (antibody, human IgG1, kappa, L234A L235A, V domains shown) VH: EVQLVESGGGLVKPGGSLRLSCAASGFTFSSYTMDWVRQAPGKGLEWVSSIGSNGDYIYYADSVRGRFTISRDNAKNSLYLQMNSLRAEDTAVYYCARGQLAVAGTHFDYWGQGTLVTVSS VL: DIQMTQSPSSLSASVGDRVTITCRASQKVNKYVNWYQQKPGKAPKLLIYAASTLQSGVPSRFSGSGSGTDFTLTISSLQPEDFATYYCQQSYSPLSTFGQGTKLEIKR | 6e-05 | 0.076 | no binding (tested: log(conc) 4.2 (about 16000 ng/ml)) | 2.2 | 0.00014 | 0.0002
4D3 (antibody, human IgG1, kappa, L234A L235A, V domains shown) VH: EVQLVESGGGLVKPGGSLRLSCAASGFTFSSYTMTWVRQAPGKGLEWVSSISSGGHYIYYTDSLKGRFTISRDNAKNSLYLQMNSLRAEDTAVYYCARERLLRLGVGFDFWGQGTLVTVSS VL: DIQMTQSPSSLSASVGDRVTITCRASQSISGYLNWYQQKPGKAPKLLIYAASTLQSGVPSRFSGSGSGTDFTLTISSLQPEDFATYYCQQSYSALYTFGQGTKLEIKR | 0.00015 | 0.023 | no binding (tested: log(conc) 4.2 (about 16000 ng/ml)) | 0.882 | 0.00013 | 0.00016
3D9b (antibody, human IgG1, kappa, L234A L235A, V domains shown) VH: EVQLVESGGGLVKPGGSLRLSCAASGFTFSTYTMHWVRQAPGKGLEWVSSISSRSAYKYYADSVKGRFTISRDNAKNSLYLQMNSLRAEDTAVYYCARDFFQLGPPRFDSWGQGTLVTVSS VL: DIQMTQSPSSLSASVGDRVTITCRASQRISSFLNWYQQKPGKAPKLLIYGASNLQSGVPSRFSGSGSGTDFTLTISSLQPEDFATYYCQQSYSPSYTFGQGTKLEIKR | 9e-05 | 0.086 | no binding (tested: log(conc) 4.2 (about 16000 ng/ml)) | 2.66 | 4e-05 | 4e-05
